From article PMC3950343 (Genes & Development, 2014) come the findings set out here.

The data set deals with the molecule itself. In words: SEC-MALS.

B1: Rad50-HK^WT (mouse Rad50 hook domain fragment, amino acids 591-773) (domain or fragment, UniProt P70388 591-773, looked up)
chain: RDRLAKLNKELASAEQNKNHINNELKKKEEQLSSYEDKLFDVCGSQDLESDLGRLKEEIEKSSKQRAMLAGATAVYSQFITQLTDENQSCCPVCQRVFQTEAELQEVISDLQSKLRLAPDKLKSTESELKKKERRRDEMLGLVPVRQSIIDLKEKEIPELRNRLQSVNRDIQRLKNDIEEQET
As to B1, the “stoichiometry N” value was found to be 2.
